Measured values taken from US20140004122A1, “METHODS FOR TREATING OR PREVENTING CHOLESTEROL RELATED DISORDERS” (AMGEN INC., priority 2011, published 2014).
Marks after values point to notes of the source that are not given here.

Key:
[1] = system: human patient at risk of developing coronary heart disease; experiment: Prevention of coronary heart disease (Example 18); assay type: in vivo; conditions: alone, concurrently or sequentially with a statin
Source text: A human patient at risk of developing coronary heart disease is identified. […] At periodic times during the treatment, the human patient is monitored to determine whether the patient's total serum cholesterol level changes.

[2] = system: hypercholesterolemic subjects with a 10 year Framingham risk score of 10% or less; experiment: 12 week monotherapy dose-ranging study (Example 24); assay type: in vivo, human; conditions: for mean percent reduction from baseline in LDL-C: preliminary; for Least squares mean percent change from baseline (%) in LDL-C / Treatment difference vs ezetimibe (%) in LDL-C / Treatment difference vs placebo (%) in LDL-C: week 12; for Treatment difference vs ezetimibe (%) in LDL-C / Treatment difference vs placebo (%) in LDL-C: P < 0.001
Protocol: Ezetimibe was not blinded. The end-of-study visit and the last estimation of lipids was at week 12 for subjects on Q4W IP schedule or on ezetimibe and week 14 for subjects on Q2W IP schedule.
Males and females, ≧18 to ≦75 years of age, were eligible for this study. Fasting LDL-C was ≧100 mg/dL (2.6 mmol/L) and <190 mg/dL (4.9 mmol/L) and fasting triglycerides ≦400 mg/dL (4.5 mmol/L) by central laboratory at screening.
The primary endpoint was the percent change from baseline in LDL-C at week 12. Secondary endpoints included percent changes in apolipoprotein B (ApoB), lipoprotein (a) (Lp(a)), and in the ratio of total cholesterol to high-density lipoprotein (HDL)-C. Tolerability and safety were also evaluated.

[3] = system: subjects with hypercholesterolemia on a statin; experiment: 12 week dose-ranging study in combination with statin (Example 25); assay type: in vivo, human; conditions: preliminary
Protocol: Randomization will be stratified by screening LDL-C level (<130 mg/dL [3.4 mmol/L] vs≧130 mg/dL) and ezetimibe use at baseline (yes vs no). Randomization should occur within 5-10 days of the screening LDL-C evaluation used to determine eligibility. Study visits are every 2 weeks, irrespective whether the subject receives Q2W SC or Q4W treatment. […] The end-of-study visit and the last estimation of lipids is at week 12 for subjects on Q4W IP schedule and week 14 for subjects on Q2W IP schedule.
Males and females, ≧18 to ≦80 years of age, are eligible for this study. For enrollment, subjects must be on a statin, with or without ezetimibe, with stable dose(s) for at least 4 weeks before LDL-C screening and not requiring uptitration. Fasting LDL-C at screening must be ≧85 mg/dL (2.2 mmol/L). Enrollment of subjects with screening fasting LDL-C between ≧85 mg/dL (2.2 mmol/L) and <100 mg/dL (2.6 mmol/L) will be limited to no more than approximately 20% of total planned enrollment. Fasting triglycerides must be ≦400 mg/dL (4.5 mmol/L) as determined by the central laboratory analysis at screening.

[4] = Osmolality of 21B12 formulations; assay type: physicochemical
Source text: In certain embodiments, the pharmaceutical formulation is isotonic with an osmolality ranging from between about 250 to about 350 miliosmol/kg, e.g., about 250 mOsm/kg, about 260 mOsm/kg, about 270 mOsm/kg, about 280 mOsm/kg, about 290 mOsm/kg, about 300 mOsm/kg, about 310 mOsm/kg, about 320 mOsm/kg, about 330 mOsm/kg, about 340 mOsm/kg, or about 350 mOsm/kg, and including all values in between. As used herein, “osmolality” is the measure of the ratio of solutes to volume fluid. In other words, it is the number of molecules and ions (or molecules) per kilogram of a solution. Osmolality may be measured on an analytical instrument called an osmometer, such as Advanced Instruments 2020 Multi-sample Osmometer, Norwood, Mass. The Advanced Instrumetns 2020 Multi-sample Osmometer measures osmolality by using the Freezing Point Depression method. The higher the osmolytes in a solution, the temperature in which it will freeze drops. Osmolality may also be measured using any other methods and in any other units known in the art such as linear extrapolation.

[5] = 70 mg (Q2W), end of the dosing interval
[6] = 105 mg (Q2W), end of the dosing interval
[7] = 280 mg (Q4W), end of the dosing interval
[8] = 350 mg, end of the dosing interval
[9] = 280 mg (Q2W as printed), end of the dosing interval
[10] = 350 mg (Q2W as printed), end of the dosing interval

B1: 21B12: human anti-PCSK9 monoclonal antibody; light/heavy variable region SEQ ID NO 23/49 (antibody, listed as Homo sapiens, V domains shown)
VH: QVQLVQSGAEVKKPGASVKVSCKASGYTLTSYGISWVRQAPGQGLEWMGWVSFYNGNTNYAQKLQGRGTMTTDPSTSTAYMELRSLRSDDTAVYYCARGYGMDVWGQGTTVTVSS
VL: QSALTQPASVSGSPGQSITISCTGTSSDVGGYNSVSWYQQHPGKAPKLMIYEVSNRPSGVSNRFSGSKSGNTASLTISGLQAEDEADYYCNSYTSTSMVFGGGTKLTVL
serum cholesterol vs patients not receiving the treatment [1]: reduced serum cholesterol
mean percent reduction from baseline in LDL-C [2, 5]: 41.21%
mean percent reduction from baseline in LDL-C [2, 6]: 45.44%
mean percent reduction from baseline in LDL-C ([2]; 140 mg (Q2W)): 51.56%
mean percent reduction from baseline in LDL-C [2, 7]: 37.53%
mean percent reduction from baseline in LDL-C [2, 8]: 42.16%
mean percent reduction from baseline in LDL-C ([2]; 420 mg): 47.52%
LDL-C reductions from baseline greater than ezetimibe ([2]; final data): 37%
change in LDL-C from baseline to week 12 greater than with placebo ([2]; final data): up to 72 mg/dL
mean reduction from baseline for ApoB ([2]; final data): up to 44%
mean reduction from baseline for Lp(a) ([2]; final data): up to 29%
least-squares (LS) mean percent reduction from baseline in LDL-C ([2]; week 12, final data): up to 51%
Least squares mean percent change from baseline (%) in LDL-C ([2]; Q2W 70 mg SC (N = 45)): −40.98%
Treatment difference vs ezetimibe (%) in LDL-C ([2]; Q2W 70 mg): −26.73* %
Treatment difference vs placebo (%) in LDL-C ([2]; Q2W 70 mg): −37.27* %
Least squares mean percent change from baseline (%) in LDL-C ([2]; Q2W 105 mg SC (N = 46)): −43.87%
Treatment difference vs ezetimibe (%) in LDL-C ([2]; Q2W 105 mg): −29.62* %
Treatment difference vs placebo (%) in LDL-C ([2]; Q2W 105 mg): −40.17* %
Least squares mean percent change from baseline (%) in LDL-C ([2]; Q2W 140 mg SC (N = 45)): −50.93%
Treatment difference vs ezetimibe (%) in LDL-C ([2]; Q2W 140 mg): −36.68* %
Treatment difference vs placebo (%) in LDL-C ([2]; Q2W 140 mg): −47.23* %
Least squares mean percent change from baseline (%) in LDL-C ([2]; Q4W 280 mg SC (N = 45)): −39.02%
Treatment difference vs ezetimibe (%) in LDL-C ([2]; Q4W 280 mg): −25.17* %
Treatment difference vs placebo (%) in LDL-C ([2]; Q4W 280 mg): −43.57* %
Least squares mean percent change from baseline (%) in LDL-C ([2]; Q4W 350 mg SC (N = 45)): −43.20%
Treatment difference vs ezetimibe (%) in LDL-C ([2]; Q4W 350 mg): −29.34* %
Treatment difference vs placebo (%) in LDL-C ([2]; Q4W 350 mg): −47.74* %
Least squares mean percent change from baseline (%) in LDL-C ([2]; Q4W 420 mg SC (N = 45)): −47.98%
Treatment difference vs ezetimibe (%) in LDL-C ([2]; Q4W 420 mg): −34.14* %
Treatment difference vs placebo (%) in LDL-C ([2]; Q4W 420 mg): −52.53* %
LS mean percent increase from baseline in HDL-C [3, 5]: 21.17%
LS mean percent reduction from baseline in LDL-C [3, 5]: 39.22%
LS mean percent reduction from baseline in Lp(a) [3, 5]: 21.17%
LS mean percent reduction from baseline in VLDL-C [3, 5]: 14.84%
LS mean percent reduction from baseline in non-HDL-C [3, 5]: 36.20%
LS mean percent reduction from baseline in total cholesterol [3, 5]: 26.33%
LS mean percent reduction from baseline in triglycerides [3, 5]: 7.20%
LS mean percent increase from baseline in HDL-C [3, 6]: 6.80%
LS mean percent reduction from baseline in LDL-C [3, 6]: 56.38%
LS mean percent reduction from baseline in Lp(a) [3, 6]: 33.41%
LS mean percent reduction from baseline in VLDL-C [3, 6]: 12.75%
LS mean percent reduction from baseline in non-HDL-C [3, 6]: 51.20%
LS mean percent reduction from baseline in total cholesterol [3, 6]: 36.91%
LS mean percent reduction from baseline in triglycerides [3, 6]: 5.65%
LS mean percent increase from baseline in HDL-C ([3]; 140 mg (Q2W)): 8.43%
LS mean percent reduction from baseline in LDL-C ([3]; 140 mg (Q2W)): 68.76%
LS mean percent reduction from baseline in Lp(a) ([3]; 140 mg (Q2W)): 33.87%
LS mean percent reduction from baseline in VLDL-C ([3]; 140 mg (Q2W)): 45.14%
LS mean percent reduction from baseline in non-HDL-C ([3]; 140 mg (Q2W)): 64.61%
LS mean percent reduction from baseline in total cholesterol ([3]; 140 mg (Q2W)): 46.17%
LS mean percent reduction from baseline in triglycerides ([3]; 140 mg (Q2W)): 17.60%
LS mean percent increase from baseline in HDL-C [3, 9]: 2.17%
LS mean percent reduction from baseline in Lp(a) [3, 9]: 22.54%
LS mean percent reduction from baseline in VLDL-C [3, 9]: 18.12%
LS mean percent reduction from baseline in non-HDL-C [3, 9]: 38.89%
LS mean percent reduction from baseline in total cholesterol [3, 9]: 28.08%
LS mean percent reduction from baseline in triglycerides [3, 9]: 6.75%
LS mean percent reduction from baseline in LDL-C [3, 7]: 42.62%
LS mean percent increase from baseline in HDL-C [3, 10]: 6.92%
LS mean percent reduction from baseline in Lp(a) [3, 10]: 29.43%
LS mean percent reduction from baseline in VLDL-C [3, 10]: 20.89%
LS mean percent reduction from baseline in non-HDL-C [3, 10]: 50.83%
LS mean percent reduction from baseline in total cholesterol [3, 10]: 36.04%
LS mean percent reduction from baseline in triglycerides [3, 10]: 9.17%
LS mean percent reduction from baseline in LDL-C [3, 8]: 56.84%
LS mean percent increase from baseline in HDL-C ([3]; 420 mg (Q2W as printed)): 7.42%
LS mean percent reduction from baseline in Lp(a) ([3]; 420 mg (Q2W as printed)): 23.29%
LS mean percent reduction from baseline in VLDL-C ([3]; 420 mg (Q2W as printed)): 28.66%
LS mean percent reduction from baseline in non-HDL-C ([3]; 420 mg (Q2W as printed)): 48.54%
LS mean percent reduction from baseline in total cholesterol ([3]; 420 mg (Q2W as printed)): 42.76%
LS mean percent reduction from baseline in triglycerides ([3]; 420 mg (Q2W as printed)): 11.13%
LS mean percent reduction from baseline in LDL-C ([3]; 420 mg): 52.19%
Osmolality (mOsmol/kg) ([4]; 21B12 73 mg/mL, 10 mM Na acetate, pH 5.2 +3% proline): 253 mOsmol/kg
Osmolality (mOsmol/kg) ([4]; 21B12 76 mg/mL, 10 mM Na acetate, pH 5.2): 53 mOsmol/kg
Osmolality (mOsmol/kg) ([4]; 21B12 116 mg/mL, 10 mM sodium acetate, pH 4.8, 50 mM methionine + 2% benzyl alcohol): 329 mOsmol/kg
Osmolality (mOsmol/kg) ([4]; 21B12 116 mg/mL, 10 mM sodium acetate, pH 4.8, 150 mM arginine): 241 mOsmol/kg
Osmolality (mOsmol/kg) ([4]; 21B12 116 mg/mL, 10 mM sodium acetate, pH 4.8, 1.5% proline + 1% benzyl alcohol): 277 mOsmol/kg
Osmolality (mOsmol/kg) ([4]; 21B12 116 mg/mL, 10 mM sodium acetate, pH 4.8, 2% proline + 1% benzyl alcohol): 313 mOsmol/kg
Osmolality (mOsmol/kg) ([4]; 21B12 116 mg/mL, 10 mM sodium acetate, pH 4.8, no excipients): 72 mOsmol/kg
Osmolality (mOsmol/kg) ([4]; 21B12 117 mg/mL, 10 mM Na acetate, pH 4.5): 59 mOsmol/kg
Osmolality (mOsmol/kg) ([4]; 21B12 122 mg/mL, 10 mM Na acetate, pH 5.2 +3% proline): 274 mOsmol/kg
Osmolality (mOsmol/kg) ([4]; 21B12 130 mg/mL, 10 mM Na acetate, pH 5): 59 mOsmol/kg
Osmolality (mOsmol/kg) ([4]; 21B12 148 mg/mL, 10 mM Na acetate, pH 5.2 +3% proline): 301 mOsmol/kg
Osmolality (mOsmol/kg) ([4]; 21B12 […], 10 mM Na acetate, pH 4): 59 mOsmol/kg
Osmolality (mOsmol/kg) ([4]; 21B12 […], 10 mM Na acetate, pH 5.2 +150 mM NaCl): 346 mOsmol/kg
Osmolality (mOsmol/kg) ([4]; 21B12 […], 10 mM Na acetate, pH 5.2 +3% proline): 252 mOsmol/kg
Osmolality (mOsmol/kg) ([4]; 21B12 […], 10 mM Na acetate, pH 5.5): 64 mOsmol/kg
Osmolality (mOsmol/kg) ([4]; 21B12 […], 10 mM Na acetate, pH 5.5 +150 mM methionine and 3% benzyl alcohol): 520 mOsmol/kg
